Measurements from patent US20160083481A1 (INSERM INSTITUT NATIONAL DE LA SANT ET DE LA RECHERCHE M …, published 2016).

Assays:
[1] = target: T1, Glycophorin B in the crude glycophorins mixture (human, UniProt P06028 20-91); experiment: western blot of the crude glycophorins mixture, PVDF, with and without NaOH beta-elimination
T1 construct: mature; also called GPB

[2] = target: T2, Purified glycophorin A (human, from red cell membranes) (human, UniProt P02724 20-150); experiment: SPR, Biacore X100, purified GPA amine-coupled on a CM5 chip (400 RU), IH4 as analyte, 1:1 Langmuir fit
T2 construct: mature; also called GPA; Human Glycophorin A
T2 sequence (looked up): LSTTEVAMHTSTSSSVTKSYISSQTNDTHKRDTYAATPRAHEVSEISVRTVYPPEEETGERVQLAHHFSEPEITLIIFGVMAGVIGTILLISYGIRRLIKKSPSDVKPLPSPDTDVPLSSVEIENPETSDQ
Experimental: SPR recordings obtained in a Biacore X100 apparatus.
SPR analysis of VHH interactions used a Biacore X100 apparatus (GE Healthcare). Purified GPA was immobilized on a CM5 chip in the Fc2 channel to a level of 400 Resonance units using amine coupling chemistry as recommended by the manufacturer. Reference channel Fc1 was simply activated and deactivated through ethanolamine. 6 different concentrations of analyte were injected onto the chip for 180 seconds, and dissociation let to proceed for 600 seconds. Data were analyzed using BIA Evaluation software associated to the apparatus.
Data can be easily fitted using 1:1 Langmuir fit.

B1: IH4 (VHH)
VHH: QVQLQESGGGSVQAGGSLRLSCVASGYTDSTYCVGWFRQAPGKEREGVARINTISGRPWYADSVKGRFTISQDNSKNTVFLQMNSLKPEDTAIYYCTLTTANSRGFCSGGYNYKGQGQVTVS
notes: also called VHH IH4; autonomous IH4; not shown: A polyhistidine tail is also present: C-terminal after the HA tag (pHEN6cPm)
Does B1 bind [1]?
Result: no binding

And the Kd [2]?
Its Kd is 33.7 nM.

What about the koff [2] of the same binder?
The koff was 0.019 s⁻¹.

And the kon [2]?
The kon was 573000 M⁻¹ s⁻¹.
